The series deals with GST-MSY3 phosphorylated in vitro by Akt (UniProt Q9JKB3). The experiment in a line: EMSA. The following applies: prior phosphorylation by Akt; binding reduced more than 50%; EMSA per earlier protocol (ref 16), 8% non-denaturing polyacrylamide gel; binding buffer, pH and temperature not given. Kinase pre-treatment: 10 mM MgCl2, 2 mM ….

These results are taken from publication PMC4491233.

Chain of GST-MSY3 phosphorylated in vitro by Akt (Q9JKB3 whole entry): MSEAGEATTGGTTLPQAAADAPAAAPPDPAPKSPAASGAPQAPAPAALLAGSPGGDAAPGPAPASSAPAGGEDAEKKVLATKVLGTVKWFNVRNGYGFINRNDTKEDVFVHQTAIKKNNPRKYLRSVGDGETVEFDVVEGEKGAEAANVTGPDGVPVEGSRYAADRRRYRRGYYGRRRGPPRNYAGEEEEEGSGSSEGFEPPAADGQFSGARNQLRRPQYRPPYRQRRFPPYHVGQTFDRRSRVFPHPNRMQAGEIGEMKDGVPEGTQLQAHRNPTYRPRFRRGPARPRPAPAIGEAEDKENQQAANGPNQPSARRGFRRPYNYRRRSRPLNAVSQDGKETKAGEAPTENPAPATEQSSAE

On to “TCTTGATGTGCAGCAACAGCT (double strand) [MYOwt (myogHCE)]”, for which the binding signal (% of unphosphorylated GST-MSY3) was below 50.
